The text below walks through data of article PMC7755605, “The Interaction of TRAF6 With Neuroplastin Promotes Spinogenesis During Early Neuronal Development” (Frontiers in Cell and Developmental Biology, 2020).

In this test the target is T1, N-terminally GST-tagged TRAF6 (mouse, UniProt P70196 1-530).
T1 construct: TNF receptor-associated factor 6 (TRAF6), mouse; amplified by PCR with primers from the start codon to the stop codon; 530 residues by the printed limits of the cc-c construct; also called GST-TRAF6; purified recombinant TRAF6; source: E. coli BL21 (DE3), purified (GST bulk kit); not shown: GST, N-terminal, kept
T1 sequence (looked up): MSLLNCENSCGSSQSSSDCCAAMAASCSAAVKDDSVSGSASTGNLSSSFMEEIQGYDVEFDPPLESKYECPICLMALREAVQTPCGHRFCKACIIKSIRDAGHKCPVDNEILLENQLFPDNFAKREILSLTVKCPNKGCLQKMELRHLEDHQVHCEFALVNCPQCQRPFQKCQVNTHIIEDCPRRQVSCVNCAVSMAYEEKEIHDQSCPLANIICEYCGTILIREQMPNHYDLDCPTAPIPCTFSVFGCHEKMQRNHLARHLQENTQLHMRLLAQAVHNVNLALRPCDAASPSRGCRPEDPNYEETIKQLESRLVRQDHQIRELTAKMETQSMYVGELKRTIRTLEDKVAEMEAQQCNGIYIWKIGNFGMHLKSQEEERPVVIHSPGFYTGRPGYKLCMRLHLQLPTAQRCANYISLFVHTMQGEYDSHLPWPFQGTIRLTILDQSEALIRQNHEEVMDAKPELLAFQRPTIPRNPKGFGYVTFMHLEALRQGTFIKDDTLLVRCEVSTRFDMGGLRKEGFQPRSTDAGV
Nature of the test: SPR; BIACORE X100, single cycle kinetics; GST-TRAF6 amine-coupled on a CM5 chip, GST-coated sensor as reference; neuroplastin peptide injected at 2.5, 5, 100, 200 and 400 uM; HBS-P buffer. Conditions: both partners purified. A general note: SPR reads the build-up and loss of mass on a sensor chip optically.

B1: neuroplastin intracellular peptide containing the TRAF6 binding motif (peptide)
chain: EKRKRPDEVPDAGPMKTNSTNNHKDKNLRQRNTN
modifications: Peptide limits are not printed (possibly in the figure or supplement). The whole cytoplasmic tail is taken by convention from the UniProt topology; it should contain the printed motif RKRPDEVPD. …
What is called Kd is a measure of binding affinity in units of concentration. Usually stoichiometry N stands for a count of units in the complex or per binding partner. For the molecule B1, the dissociation constant (Kd) is 88 µM and the “stoichiometry N” value came to 1.
